According to patent US20250002557A1:
Read-outs that look alike come from different tables or passages of the source.

Key:
[1] = target: VEGF-A165 (UniProt P15692); test: blocking ELISA, VEGF-A165 to VEGFR1 (Example 13)
[2] = target: VEGF-A165 (UniProt P15692); test: blocking ELISA, VEGF-A165 to VEGFR2 (Example 13)
[3] = target: VEGF-A165 (UniProt P15692); test: blocking ELISA, VEGF A165 to VEGFR1 (Example 16)
[4] = target: VEGF-A165 (UniProt P15692); test: blocking ELISA, VEGF A165 to VEGFR2 (Example 16)
[5] = target: VEGF-A165 (UniProt P15692); test: blocking ELISA, VEGF-A 165-His to coated VEGFR2-Fc
[6] = target: T1, PIGF (UniProt P49763); test: ELISA, PlGF coated, anti-human Fc-HRP, OD450
T1 sequence (looked up): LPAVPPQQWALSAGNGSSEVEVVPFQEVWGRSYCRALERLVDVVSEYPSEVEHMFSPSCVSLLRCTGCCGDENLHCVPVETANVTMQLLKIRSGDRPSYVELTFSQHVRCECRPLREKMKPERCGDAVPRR

[7] = target: T1, PIGF; test: ELISA, PlGF coated, anti-human Fc-HRP, OD450; remark: listed apart in the source
[8] = target: T1, PIGF; test: ELISA, PlGF coated, anti-human Fc-HRP, OD450; remark: listed apart in the source
[9] = target: VEGF-A165 (UniProt P15692); test: ELISA binding to VEGF-A165, absorbance 450 nm
[10] = target: T2, VEGF-B (UniProt P49765); test: ELISA, VEGF-B coated, anti-human Fc-HRP, OD450
T2 sequence (looked up): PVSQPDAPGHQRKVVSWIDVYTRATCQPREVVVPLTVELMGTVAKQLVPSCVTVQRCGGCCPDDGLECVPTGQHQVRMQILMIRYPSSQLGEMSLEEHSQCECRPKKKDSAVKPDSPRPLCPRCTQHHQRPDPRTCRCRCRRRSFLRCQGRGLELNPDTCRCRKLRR

[11] = target: T2, VEGF-B; test: ELISA, VEGF-B coated, anti-human Fc-HRP, OD450; remark: listed apart in the source
[12] = target: T2, VEGF-B; test: ELISA, VEGF-B coated, anti-human Fc-HRP, OD450; remark: listed apart in the source
[13] = target: VEGF-A165 (UniProt P15692); test: blocking ELISA, VEGF-A 165-His to coated VEGFR2-Fc; row head prints uM, paragraph 129 and ng/ml row give nM
[14] = target: VEGF-A165 (UniProt P15692); test: blocking ELISA: His-VEGF-A165 premixed with sample, binding to coated VEGFR2-Fc read with anti-His-HRP

Sequence of Eylea (Fc fusion) (chain): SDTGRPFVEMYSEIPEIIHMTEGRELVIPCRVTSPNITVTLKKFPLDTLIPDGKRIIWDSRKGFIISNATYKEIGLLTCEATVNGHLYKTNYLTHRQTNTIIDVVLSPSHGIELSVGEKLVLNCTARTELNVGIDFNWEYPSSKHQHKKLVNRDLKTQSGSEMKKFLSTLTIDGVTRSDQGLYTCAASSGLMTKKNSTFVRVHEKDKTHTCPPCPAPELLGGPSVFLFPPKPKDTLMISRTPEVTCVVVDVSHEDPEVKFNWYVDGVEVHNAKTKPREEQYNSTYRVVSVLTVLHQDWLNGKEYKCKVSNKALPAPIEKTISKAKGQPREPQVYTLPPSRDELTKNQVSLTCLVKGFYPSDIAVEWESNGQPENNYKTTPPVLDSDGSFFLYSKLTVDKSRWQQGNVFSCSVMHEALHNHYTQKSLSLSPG
Sequence of VEGF-A165 (P15692 other isoform, or with tags, fused parts or gaps limits assumed): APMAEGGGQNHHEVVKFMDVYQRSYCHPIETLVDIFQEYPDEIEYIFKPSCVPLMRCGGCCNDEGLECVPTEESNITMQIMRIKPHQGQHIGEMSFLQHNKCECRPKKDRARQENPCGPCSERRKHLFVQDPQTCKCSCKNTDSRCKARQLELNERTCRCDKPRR

With Eylea (Fc fusion) the EC50 [1] was 4.64 nM, the EC50 [2] was 2.23 nM and the EC50 [3] was 6.96 nM. For the same substance, the EC50 [4] was 3.94 nM, the EC50 [5] was 0.32 µg/mL and the EC50 [6] was 0.17 nM. It also gave an EC50 [7] of 0.1 nM, an EC50 [8] of 0.223 nM and an EC50 [9] of 0.138 nM. For the same substance, the EC50 [10] was 0.64 nM, the EC50 [11] was 0.94 nM and the EC50 [12] was 1.07 nM. The EC50 [13] was 3200 nM and the EC50 [14] was 1.7 nM.
